Test results from patent US11999782B2, “Therapeutic agents for the treatment of diseases associated with undesired cell proliferation” (Fundació Privada Institutció Catalana de Recerca I Estudis …, priority 2009, dated 2024).

Tests used:
[1] = system: LIF expression in normal human neuroprogenitors; assay: LIF mRNA in neurospheres of normal human neuroprogenitors; type: cell-based; settings: 100 pM, 3 hours, compared with GBM neurospheres
Experimental: FIG. 8. Effect of TGFβ on the capacity of self-renewal of normal human neuroprogenitors. (A) Immunocytochemistry of the indicated markers was performed in human neuroprogenitor neurospheres. (B) Neurospheres of the sample of GBM1 and of human neuroprogenitors were incubated with the indicated members of the 100 pM TGFβ family for 3 hours and the mRNA levels of LIF were determined. (C, D) Neurosphere cells of normal human neuroprogenitors were incubated in the same conditions that have been described above in FIG. 1D in the presence of 100 pM TGFβ1 or 20 ng/ml LIF for 7 days and the number of newly formed neurospheres (C) and the number total of cells (D) were determined.
The U373MG and A172 cells were a generous gift from J. Rich and D. Bigner and were cultured in DMEM with 10% fetal bovine serum (FBS). The primary culture of tumor cells (PCTC) and the GBM neurospheres were generated as described (Bruna et al., (2007) Cancer Cell 11, 147-160; Gunther et al., (2008) Oncogene. May 1; 27(20):2897-909). Briefly, the samples of tumors were processed in the 30 minutes after the surgical resection. The ground pieces of the samples of human gliomas were digested with 200 U/ml collagenase I (Sigma) and 500 U/ml of DNase I (Sigma) in PBS for 2 hours at 37° C. and with constant vigorous stirring. The suspension of individual cells was filtered through a 70 μm cell filter (BD Falcon) and washed with PBS. […]
qRT-PCR was performed using Taqman probes from Applied Biosystems, according to the manufacturer's recommendations. The reactions were carried out in a ABI 7000 sequence detector (Perkin Elmer) and the results were expressed as the fold change calculated by means of the DDCt method relative to the control sample or the first quantified sample. […]
It was decided to assess whether this effect was specific to tumor cells or was also present in normal neuroprogenitor cells. […] First, it was determined if TGFβ induced LIF in normal human neuroprogenitors. […]

[2] = system: LIF expression in GBM neurospheres; assay: LIF mRNA by qRT-PCR in GBM neurospheres; type: cell-based, human; settings: 100 pM, 3 hours, medium without serum
Experimental: FIG. 3. TGFβ induces the expression of LIF in PCTC and GBM neurospheres. (A) PCTC cells of the 11 samples of the indicated GEM (GBM1-11) were treated with 100 pM TGFβ1 for 3 hours in medium without serum or left untreated, and the expression levels of LIF were determined by means of qRT-PCR. The g-actin was determined as an internal normalization control. (B) GBM neurosphere cells were treated as in A and the expression levels of LIF were determined by means of qRT-PCR as in A. (C) GBM neurospheres were incubated with 100 pM TGFβ1 and/or 2 μM TβRI inhibitor for 3 hours in medium without serum and the mRNA levels of LIF were determined by means of qRT-PCR as in A. (D) GBM1 neurospheres were incubated with 100 pM TGFβ1, TGFβ2 and TGFβ3 for 3 hours in medium without serum and the mRNA levels of LIF were determined by means of qRT-PCR as in A. (E) The levels of LIF protein secreted were determined by means of ELISA in GBM1 neurospheres after 48 hours of treatment with 100 pM TGFβ1.
The U373MG and A172 cells were a generous gift from J. Rich and D. Bigner and were cultured in DMEM with 10% fetal bovine serum (FBS). The primary culture of tumor cells (PCTC) and the GBM neurospheres were generated as described (Bruna et al., (2007) Cancer Cell 11, 147-160; Gunther et al., (2008) Oncogene. May 1; 27(20):2897-909). Briefly, the samples of tumors were processed in the 30 minutes after the surgical resection. The ground pieces of the samples of human gliomas were digested with 200 U/ml collagenase I (Sigma) and 500 U/ml of DNase I (Sigma) in PBS for 2 hours at 37° C. and with constant vigorous stirring. The suspension of individual cells was filtered through a 70 μm cell filter (BD Falcon) and washed with PBS. Finally, the cells were resuspended and subsequently cultured in DMEM with 10% FBS, for the culture of PCTCs, or in neurosphere medium in the case of the GBM neurospheres. The neurospheres of normal human neuroprogenitors were generated from human embryonic cerebral cortex tissue (12-16 weeks after the conception) collected after voluntary abortions. The samples were processed and cultured as described (Poltavtseva et al. (2002) Brain Res Dev Brain Res 134, 149-154). The neurosphere medium consists of neurobasal medium (Gibco) supplemented with B27 (Gibco), L-glutamine (Gibco), penicillin/streptomycin, and growth factors (20 ng/mL EGF and 20 ng/mL FGF-2 (Peprotech)).
(§1) qRT-PCR was performed using Taqman probes from Applied Biosystems, according to the manufacturer's recommendations. The reactions were carried out in a ABI 7000 sequence detector (Perkin Elmer) and the results were expressed as the fold change calculated by means of the DDCt method relative to the control sample or the first quantified sample. The ribosomal unit of 18S or β-actin were used as internal normalization controls.
It was decided to investigate the molecular mechanisms responsible for the effect of TGFβ on GICs. Gene responses to TGFβ in GBM cells which could be involved in the regulation of the self-renewal of GICs were investigated. In a previous work (Bruna et al., 2007), transcriptome analyses were conducted in the U373MG glioma cell line treated with TGFβ and/or a TβRI inhibitor. LIF was among the 63 gene responses to TGFβ in U373MG which were dependent on the activity of TβRI. […] A panel of PCTCs derived from 11 different human GBMs was treated with TGFβ for 3 hours and the levels of LIF mRNA were determined.

[3] = system: GBM neurospheres; assay: Differentiation of GBM neurospheres (neuroprogenitor markers, adhesion); type: cell-based, human; settings: GBM1 neurospheres, 7 days without EGF or FGF, 100 pM TGFβ1 or 20 ng/ml LIF
Experimental: FIG. 7. TGFβ and LIF prevent the differentiation of GBM neurospheres. (A) Immunocytochemistry of the indicated proteins was performed in neurospheres derived from GBM1 treated with 100 pM TGFβ1 or 20 ng/ml LIF for 7 days in the absence of growth factors and the last 3 days on slides coated with poly-L-lysine. (B) The mRNA levels of Musashi-1 (Msi-1), Sox2 and Nestin were determined in GBM1 neurospheres after 7 days of the indicated treatments without growth factors. The RNA levels of 18S were used as an internal normalization control.
The immunocytochemistry of neurospheres and differentiated neurospheres was performed as described (Geshwind et al., 2001) using the following antibodies: anti-nestin (Chemicon), anti-GFAP (Dako), anti-TuJ1 (Chemicon), anti-04 (Chemicon), anti-Sox2 (Chemicon), anti-α-tubulin (Sigma). The nuclei were counterstained with 4′,6-diamino-2-phenylindole (DAPI).
as §1
The neurospheres derived from GBMs grown in the absence of growth factors and seeded in poly-L-lysine-coated plates tend to differentiate losing the expression of the neuroprogenitor markers Musashi-1, Sox2 and Nestin, and being adhered to the culture plate. It was decided to evaluate the effect of TGFβ and LIF on this differentiation process. The neurospheres were cultured in the presence of TGFβ or LIF without EGF or FGF for 7 days and subsequently processed for immunohistochemical staining and qRT-PCR assays for determining the levels of the neuroprogenitor markers Musashi-1, Sox2 and Nestin.

B1: TGFβ3: TGFβ3 (R&D Systems), member of the TGFβ family (protein, UniProt P10600 301-412, looked up)
Transforming growth factor …: ALDTNYCFRNLEENCCVRPLYIDFRQDLGWKWVHEPKGYYANFCSGPCPYLRSADTTHSTVLGLYNTLNPEASASPCCVPQDLEPLTILYYVGRTPKVEQLSNMVVKSCKCS
induction of LIF mRNA in normal human neuroprogenitor neurospheres [1]: did not induce LIF
LIF transcript in neurospheres derived from patients [2]: capable of inducing LIF
expression of Musashi-1, Sox2 and Nestin (immunocytochemistry, qRT-PCR) [3]: maintained the expression
